Among the data in US20150111814A1 are IC50, p24 leakage from fully infectious HIV-1 BaL (ELISA) values, retold here.

The assay deals with HIV-1 BaL envelope protein spike (Env) on virions (HIV-1 BaL strain). The experiment in a line: cell-based or functional assay.

Turning to “DAVEI 4 (Dual Acting Virucidal Entry Inhibitor; cyanovirin-N-(Gly4Ser)4-His6-MPER fusion)”, the IC50, p24 leakage from fully infectious HIV-1 BaL (ELISA) was found to be 200 nM. Next, “DAVEI 8 (Dual Acting Virucidal Entry Inhibitor; cyanovirin-N-(Gly4Ser)8-His6-MPER fusion)”: 395 nM.
